Experimental data from patent US20190248902A1 (published 2019).
Changes are numbered by the printed parent chain.

T1: human ASGR-1 (human, UniProt P07306 1-291)
T1 construct: Stably expressed on CHO-S cells (CHO-S:huASGR-1); The method text says human or mouse ASGR-1 cells were used; also called huASGR-1; hASGR-1
T1 sequence: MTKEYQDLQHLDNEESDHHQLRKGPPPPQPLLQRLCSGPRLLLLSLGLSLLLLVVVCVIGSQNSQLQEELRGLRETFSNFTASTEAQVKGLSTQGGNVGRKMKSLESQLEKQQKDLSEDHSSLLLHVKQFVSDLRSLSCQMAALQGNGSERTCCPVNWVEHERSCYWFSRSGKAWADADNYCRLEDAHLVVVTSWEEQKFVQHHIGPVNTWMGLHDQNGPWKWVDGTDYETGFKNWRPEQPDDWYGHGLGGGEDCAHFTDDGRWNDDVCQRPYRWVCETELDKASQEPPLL

B1: 198D2 (antibody, V domains shown)
VH: QVQLVESGGGVVQPGRSLRLSCAASGFTFRSYGMHWVRQAPGKGLEWVAVIIYDGSYKYYADSVKGRFTISRDNSKNTLYLQMNSLRAEDTAVYYCARTYSGGMDVWGQGTTVTVSS
VL: QSVLTQPPSVSAAPGQKVTISCSGSSSNIGSNYVSWYQQLPGTAPKVLIYDNNKRPSGIPDRFSGSKSGTSATLGITGLQTGDEADYYCGTWDSRLNVGVFGGGTKLTVL
B2: 218G4 (antibody, V domains shown)
VH: QVQLVESGGGVVQPGRSLRLSCAASGFTFSSYGLHWVRQAPGKGLEWVAVIWYDGSNKYYADSVKGRFTISRDNSKNTLYLQMNSLRVEDTAVYYCANWYYYYYGMDVWGQGTTVTVSS
VL: B1 VL with S31N, V47L, I49L, N52S, D61A, R95S, V98T, G99V
B3: 202A3 (antibody, V domains shown)
VH: QVQLEQSGAEVKKPGASVKVSCKASGYTFTSYDINWVRQATGQGLEWLGWMNPKRGNTGYAQKFQGRVTMTRNTSISTAHMELSSLRSEDTAVYYCARGRYSREDYYYYYDMDVWGQGTTVTVSS
VL: DIQMSQSPSSLSASVGDRVTITCRASQGIRNDLGWYQQKPGKAPKRLICAASRLQSGVPSRFSGSGSGTEFTLTISSLQPEDFAIYYCLQHHDYPFTFGPGTKVDIK
B4: 4A2 (antibody, V domains shown)
VH: QVQLVQSGTEVKKPGASVKVSCKASGYTFTNYDINWVRQATGQGLEWMGWMHPNSGNTGYAQKFQGRVTLTRNTSISTAYMELSSLRSEDTAVYYCASSSGWYYFDYWGQGTLVTVSS
VL: DIVMTQSPDSLAVSLGERATINCKSSQSILHSSNNNNYLAWFQQKPGQPPKLLLYWASTRESGVPDRFSGSGSGTDFTLTISSLQPEDVAVYYCQQYYNTPVTFGPGTKVGIK
B5: 190F8 (antibody, V domains shown)
VH: QVQLVESGGGVVQPGRSLRLSCAASGFTFSTYGMHWVRQAPGKGLEWVAVIWYDGSNKNYADSVKGRFTISRDNSKNTLYLQMNSLRAEDTAVYYCARDQGVGYDGLDVWGQGTTVTVSS
VL: DIQMTQSPSSLSASVGDRVTITCRTSQGIGNYLAWFQQKPGKAPKSLLYKASSLQSGVPSKFSGSGSGTDFTLTISSLQPEDFATYYCQQYMTYPLTFGGGTKVEIK
B6: 197G3 (antibody, V domains shown)
VH: B5 VH with A23V, T31S, Y32H, Q100P, G101S, L107M
VL: DIQMTQSPSSLSASVGDRVTITCRASQGIGNHLAWFQQKPGKAPKSLIYAASSLQSGVPSKFSGSRSGTDFSLTISSLQPEDFATYYCQQYSNYPVTFGPGTKVDIK
B7: 194C1 (antibody, V domains shown)
VH: B5 VH with T31S, K58E, N59H, D99N, Q100R, D105Y
VL: B5 VL with T25A, G30S, L48I, K50A, Q89L, Q90H, M92L
B8: 191G10 (antibody, V domains shown)
VH: B5 VH with T31S
VL: B5 VL with N31K, A51V
B9: 198G3 (antibody, V domains shown)
VH: B5 VH with R19K, S56T, Y80C
VL: B5 VL with T5A, N31K, S56G
B10: 191G1 (antibody, V domains shown)
VH: B5 VH with T31S, K58E, N59H, Q100R, D105Y
VL: B5 VL with T25A, G30S, L48I, K50A, Q90H, M92L
B11: 4H6 (antibody, V domains shown)
VH: QVQLVQSGAEVKKPGASVKVSCKASGYTFTDYYLHWVRQAPGQGLEWMGWIHPNSGGTNYAQKFQGRVTMTRDTSISTAYMGLSSLRSDDTAVYYCARDGTSSFDYWGQGTLVTVSS
VL: DIQMTQSPSSVSASVGDRVTITCRASQGISRWLAWYQQKPGKAPKLLIYGASSLQSGVPSRFSGSGSGTDFTLTISSLQPEDFAIYYCQQANSFPFTFGPGTKVDIK
notes: tested as antibody purified from hybridoma supernatant or made recombinantly
B12: 193E7 (antibody, V domains shown)
VH: QVQLQQWGAGLLKPSETLSLTCAVYGGSFSGYFWTWIRQPPGKGLEWIGEINHSGSTNYNPSLKSRVTISVDTSKNQFSLKLSSVTAADTAVYYCARDYGADYWGQGTLVAVSA
VL: DIQMTQSPSSLSASVGDRVTITCRASQGIRNDLGWYQQKPGKAPKRLIYSASSLQRGVPSRFSGSGSGTEFTLTISSLQPEDFATYYCLQHKRYPLTFGGGTKVEIK
B13: 194A4 (antibody, V domains shown)
VH: QVQLVQSGTEVKKPGASLKVSCKASGYTFTVYYLNWVRQAPGQGLEWMGWINPNSGGTNYAQKFQGRVTMTRDTSISTAYMELSRLRSDDTAVYYCARGYDILTGWGQGTLVTVSS
VL: EIVLTQSPGTLSLSPGERATLSCRASRGVSNIYLAWYQQKPGQAPRLLIYGASNRATGIPDRFSGSGSGTDFTLTISRLEPEDFAVYYCQHNDYSMFTFGPGTKVDIK
B14: 4B1 (antibody, V domains shown)
VH: QVQLQESGPGLVKPSETLSLTCSVSGDSISSYSWSWIRQPAGKGLEWIGRIYTSGSTNYIPSLKSRITMSVDTSKKQFSLKLSSVTAADTAVYYCARDLKSSGCLFFDYWGQGTLVTVSS
VL: DIQMTQSPSSLSASVGDRVTITCRASHTIRTYLNWYQQKPGKAPKLLIYAASSLQSGVPSRINGSGSGTDFTLTITNLQPEDFATYYCQQSYNISFTFGPGTKVDIK
B15: 194C10 (antibody, V domains shown)
VH: QVQLQQWGAGLLKPSETLSLTCAVSGGSFRYYYWSWIRQPPGKGLEWFGEINHSGSTNYNPSLKSRVTISIDTSKNQFSLKLRSVTAADTAVYYCARDYGAFDIWGQGTMVTVSS
VL: EIVLTQSPGTLSLSPGERATLSCRASPSVNSGYLAWYQQKPGQTPRLLIFGASSRATGIPDRFSASGSGADFTLTISRLEPEDFAVYFCQQYESSPWTFGQGTKVEIK

Tests used:
human ASGR-1 [1] = target: T1, human ASGR-1; test: FACS ligand blocking on CHO-S ASGR-1 cells; labelled ligand biotin-GalNAc-PAA (synthetic sugar)
Method: (§1) All ASGR-1 antibodies that bound either human or mouse ASGR-1 stable CHO—S cells were then tested for ligand blocking using both a protein ligand and a synthetic sugar ligand. The method in brief is as follows: first, 20 ul of either CHO-Shuman or mouse ASGR-1 cells were added to wells of a 384 well plate (30 k cells/well) followed by spin and discarding the supernatant. Second, 10 ul of the antibodies (either purified from hybridoma supernatants or made recombinantly) were added in duplicate to the cells in a dilution series (200 nM top concentration, 1:2 serial dilution, 11 point curve) and were incubated for 30 min at 4 C. […] After 30 min incubation at 4C, the plate was spun and washed twice with FACS buffer+1 mM CaCl2 followed by the detection streptavidin-AF647 at 1:1000 dilution. After 30 min at 4C, the cells were spun and washed once and then 60 ul PI added at 1:1000 dilution and the plates delivered to a core flow cytometry facility. The plates were read and processed similarly to the cell binding method except the signal now represents an inhibition curve and typically decreases a function of increasing antibody concentration. IC50 nM potency and % Inhibition were reported. […] Differences in the ability of antibodies to block these two ligands could occur as a result of differences in, for example, avidity stemming from differences in the number and/or orientation of the ASGR binding terminal sugar residues of each ligand, steric hindrance between antibody and each ligand, and/or changes in the conformation of ASGR induced by antibody binding that selectively alters the binding of each ligand.

human ASGR-1 [2] = target: T1, human ASGR-1; test: FACS ligand blocking on CHO-S ASGR-1 cells; competitor biotinylated asialofetuin
Method: as §1

| Binder | % Inhibition (human ASGR-1 [1]) | IC50 (human ASGR-1 [1]) | % Inhibition (human ASGR-1 [2]) | IC50 (human ASGR-1 [2]) |
| --- | --- | --- | --- | --- |
| B1 | 99% | 55 nM | 99% | 22 nM |
| B2 | 99% | 71 nM | 99% | 28 nM |
| B3 | 96% | 32 nM | 98% | 16 nM |
| B4 | 70% | 54 nM | 99% | 11 nM |
| B5 | 83% | 44 nM | 98% | 34 nM |
| B6 | 74% | 15 nM | 90% | 29 nM |
| B7 | 89% | 72 nM | 99% | 34 nM |
| B8 | 99% | 56 nM | 99% | 27 nM |
| B9 | 81% | 5 nM | 99% | 26 nM |
| B10 | 78% | 62 nM | 99% | 24 nM |
| B11 | 20% | 8.1 nM | 85% | 12 nM |
| B12 | 60% | 33 nM | 99% | 30 nM |
| B13 | 60% | 48 nM | 99% | 57 nM |
| B14 | 36% | 42 nM | 75% | 64 nM |
| B15 | 99% |  | 99% |  |
